Substitutions are numbered along the chain they refer to. Each block holds one binder with its values, some of them ahead of it.
Tests used:
recombinant human IL-6 [1] = molecular target: T1, recombinant human IL-6 (human, UniProt P05231 30-212, limits assumed); assay: competition ELISA, rhIL-6 in solution against captured IL-6
T1 construct: also called rhIL6; human recombinant IL-6
Procedure: (§1) Briefly, plates were coated with 2 μg/ml of mBE4 capture antibody in coating buffer, 100 μl per well. The plates were incubated overnight. Next, the plates were washed 3 times and tapped dry. The plates were then blocked with 200 μl per well of Assay Diluent or 10% FBS in PBS and incubated for 2 hours. […] The reaction was left at RT for 3-4 hours. […] Next, the plates were washed 3 times and tapped dry. […] The plates were incubated for 1-2 hours. The plates were washed 3 times and tapped dry. […] The plates were incubated at RT for 2 hours. (Therefore, any unbound mAb at this point will be measured by ELISA). Plates were then washed 5 times and tapped dry. 100 μl of detection Ab goat anti-human IgG F(ab)′2-HRP (Jackson lab) was added at 1:20,000 dilutions or 1:40,000 dilutions (depending on lot) and the plates were incubated for 1-2 hours. The plates were washed 7 times and tapped dry. Next, the Developer Substrate (equal parts of each reagent in the kit) was pre-mixed and allowed to warm to room temperature before use. Then 100 μl of Developer was added to each well. The plates were allowed to develop for 15 minutes un-sealed in a drawer in the dark. Finally, developing was stopped by adding 100 μl of 2N H₂SO₄ to each well and plates were read as Endpoint at 450 nm-[…].

recombinant murine IL-6 = molecular target: T2, recombinant murine IL-6 (murine, UniProt P08505 25-211); assay: ELISA on coated murine IL-6; human mAbs detected with rabbit anti-human IgG-HRP; series 100, 50, 25, 12.5 ng/ml (antibody by paragraph 42; headed mIL-6 (ng/ml) on the sheet)
T2 sequence (looked up): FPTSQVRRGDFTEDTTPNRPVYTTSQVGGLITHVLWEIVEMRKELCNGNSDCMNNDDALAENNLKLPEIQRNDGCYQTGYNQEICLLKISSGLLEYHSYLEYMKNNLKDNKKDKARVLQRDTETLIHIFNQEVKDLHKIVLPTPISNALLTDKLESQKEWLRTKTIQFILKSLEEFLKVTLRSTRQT
Procedure: (§2) For sample “0,” no antibody was added. […] Each column represents a mean of two experiments +/− standard deviation.
(§3) For experiments using human monoclonal antibodies, IgG1 Kappa (human myeloma IgG1; Sigma-Aldrich Co.) mAb was used as a control. Rabbit anti-human IgG-HRP (Dako) was added at a dilution of 1/10,000 at 100 μl/well for detection of mAbs. […] For pAbs, Streptavidin-HRP (Prozyme) was added for detection at 100 μl/well. Antibodies were applied at concentrations of 12.5, 25, 50, and 100 ng/ml.

recombinant human IL-6 [2] = molecular target: T1, recombinant human IL-6; assay: competition ELISA, rhIL-6 in solution against captured IL-6 (Affinity (nM) by IC50 ELISA)
Procedure: as §1
(§4) IC50 ELISA was performed as described above. Affinity analysis by Biacore was performed according to manufacturer protocols using HBS-EP buffer (Biacore AB).

recombinant human IL-6 [3] = molecular target: T1, recombinant human IL-6; assay: Biacore 2000, mAb captured on anti-human IgG CM5 chip, human IL-6 40-1.25 nM injected
Procedure: as §4

recombinant rat IL-6 = molecular target: T3, recombinant rat IL-6 (rat, UniProt P20607 25-211); assay: ELISA on coated rat IL-6; human mAbs detected with rabbit anti-human IgG-HRP; series 100, 50, 25, 12.5 ng/ml (antibody by paragraph 42; headed mIL-6 (ng/ml) on the sheet)
T3 sequence (looked up): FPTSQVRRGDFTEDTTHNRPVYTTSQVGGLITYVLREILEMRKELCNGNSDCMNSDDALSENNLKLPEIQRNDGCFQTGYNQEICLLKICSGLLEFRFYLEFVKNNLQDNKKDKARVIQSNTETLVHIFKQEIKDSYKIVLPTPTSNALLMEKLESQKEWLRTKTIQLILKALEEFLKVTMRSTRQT
Procedure: as §2, §3

[4] = molecular target: T4, natural monkey IL-6 from rhesus monkey serum (rhesus monkey, UniProt P51494 28-212, limits assumed); assay: competition ELISA (U-Cytech Monkey IL-6 kit): rhesus monkey serum (plasma on the sheet) at dilutions 1/10 to 1/640 with the antibody at 5 µg/ml as competitor of the kit's coated IL-6 antibody; a lower OD than the sample '0' means binding
T4 sequence (looked up): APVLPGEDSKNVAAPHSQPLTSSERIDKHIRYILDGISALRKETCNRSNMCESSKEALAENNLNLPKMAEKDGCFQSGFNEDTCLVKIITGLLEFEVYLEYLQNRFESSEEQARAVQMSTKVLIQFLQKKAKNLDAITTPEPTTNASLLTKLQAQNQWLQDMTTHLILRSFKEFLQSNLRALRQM

human serum albumin = human serum albumin (human, UniProt P02768 25-609); assay: ELISA on a panel of control antigens (data not shown)
human serum albumin, sequence (P02768 25-609 limits assumed): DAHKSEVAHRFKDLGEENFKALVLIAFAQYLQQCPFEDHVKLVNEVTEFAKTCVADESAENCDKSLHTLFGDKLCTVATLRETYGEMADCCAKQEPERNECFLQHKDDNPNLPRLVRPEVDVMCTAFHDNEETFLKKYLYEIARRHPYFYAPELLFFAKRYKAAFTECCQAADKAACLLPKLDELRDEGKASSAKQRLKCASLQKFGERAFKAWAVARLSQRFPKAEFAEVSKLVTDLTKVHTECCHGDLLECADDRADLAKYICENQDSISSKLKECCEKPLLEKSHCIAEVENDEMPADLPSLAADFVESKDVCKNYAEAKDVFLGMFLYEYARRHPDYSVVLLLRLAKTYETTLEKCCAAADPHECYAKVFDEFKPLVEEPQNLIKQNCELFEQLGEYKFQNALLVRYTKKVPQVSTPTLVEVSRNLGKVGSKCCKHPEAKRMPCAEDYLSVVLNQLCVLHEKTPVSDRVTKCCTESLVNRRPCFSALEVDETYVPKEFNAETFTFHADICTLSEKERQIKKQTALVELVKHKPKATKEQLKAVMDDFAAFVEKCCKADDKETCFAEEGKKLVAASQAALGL

bovine serum albumin = bovine serum albumin (bovine, UniProt P02769 25-607); assay: as above
bovine serum albumin, sequence (P02769 25-607 limits assumed): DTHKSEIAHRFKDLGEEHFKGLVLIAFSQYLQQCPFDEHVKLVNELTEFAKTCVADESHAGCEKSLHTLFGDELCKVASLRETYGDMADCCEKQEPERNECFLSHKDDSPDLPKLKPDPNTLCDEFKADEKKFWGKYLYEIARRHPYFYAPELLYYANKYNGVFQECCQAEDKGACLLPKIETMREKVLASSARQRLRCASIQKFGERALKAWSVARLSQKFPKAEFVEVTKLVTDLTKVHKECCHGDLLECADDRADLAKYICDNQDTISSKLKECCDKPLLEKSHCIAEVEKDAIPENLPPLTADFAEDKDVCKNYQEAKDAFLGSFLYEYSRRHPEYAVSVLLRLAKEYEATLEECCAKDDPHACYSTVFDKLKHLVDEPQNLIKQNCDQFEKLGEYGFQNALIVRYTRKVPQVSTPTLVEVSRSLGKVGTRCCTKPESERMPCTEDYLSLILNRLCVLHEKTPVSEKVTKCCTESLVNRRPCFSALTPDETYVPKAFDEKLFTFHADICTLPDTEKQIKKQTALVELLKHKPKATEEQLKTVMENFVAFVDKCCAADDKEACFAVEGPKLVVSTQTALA

human insulin = human insulin (human, UniProt P01308 25-54; P01308 90-110, limits assumed); assay: as above
human insulin, sequence (P01308 25-54 limits assumed, chain 1 of 2): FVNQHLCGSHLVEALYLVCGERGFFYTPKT
human insulin, sequence (P01308 90-110 limits assumed, chain 2 of 2): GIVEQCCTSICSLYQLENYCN

recombinant human IL-6 [5] = molecular target: T1, recombinant human IL-6; assay: flow cytometry blocking assay: biotinylated rhIL-6 (12 ng/ml on the sheet; 12.5 ng/ml in paragraph 183) pre-incubated with the mAb, then U266 cells bearing IL-6 receptor added; cell-bound IL-6 shown with streptavidin-PE; readout % inhibition
Procedure: FcR-blocked U266 cells (about 250,000 cells) were then added and co-incubated for another 30 min on ice. […] After washing, the cells were analyzed by flow cytometry.

IC50 (recombinant human IL-6 [1]): 0.07 nM | IC50 (recombinant human IL-6 [2]): 0.033 nM | Kd (recombinant human IL-6 [3]): 0.13 nM | binding result (recombinant rat IL-6): no binding (tested: 100 ng/ml)
B1: mAb 926 (antibody, human IgG1, kappa, V domains shown)
VH: QVTLKESGPTLVKPTQTLTLTCSFSGFSLSTSGVGVGWVRQPPGKALEWLAFIFWDDDKYYSPSLESRLTITKDTSKNQVVLTMTNMDPVDTATYYCARSADDYLYYALDYWGQGTLVTVSS
VL: DIQMTQSPSSLSAFVGDGVTMTCWASQSINDYLNWYHQRPGEAPELLVFAASNLQIGVPSRFRGSGSETYFTLTINSLQPEDSGTYFCQNGHSFPLTFGGGTKLEIKR
binding result (recombinant murine IL-6): no binding (tested: 100 ng/ml (Ab: 0.1 µg/ml in the title))

IC50 (recombinant human IL-6 [1]): 0.026 nM | IC50 (recombinant human IL-6 [2]): 0.026 nM | Kd (recombinant human IL-6 [3]): 0.071 nM | binding result [4]: binds | binding result (human serum albumin): no binding | binding result (bovine serum albumin): no binding | binding result (human insulin): no binding | binding result (recombinant rat IL-6): no binding (tested: 100 ng/ml)
B2: mAb 1339 (antibody, human IgG1, kappa, V domains shown)
VH: B1 VH with F54W, A108S, L109F, Y111T
VL: B1 VL with G91A
binding result (recombinant murine IL-6): no binding (tested: 100 ng/ml (Ab: 0.1 µg/ml in the title))

IC50 (read off the curve) (recombinant human IL-6 [5]): ~0.02 µg/mL
B3: murine mAb B-E8 (antibody, V domains shown)
VH: QVTLKESGPGILKPSQTLSLTCSFSGFSLSTSGMGVGWIRQPSGKGLEWLAHIWWDDDKYYNPSLKSQLTISKDTSRNQVFLKITSVDTADTATYYCARSYDDYLYYALDYWGQGTSVTVSS
VL: DIVMTQSPATLSVTPGDRVSLSCRASQSISDYLHWYQQKSHESPRLLIKSVSQSISGIPSRFSGSGSGSDFTLSINSVEPEDVGVYYCQNGHSFPLTFGAGTKLELK
modifications: Biotinylated in FIG. 16.
notes: Murine anti-IL-6 antibody from which the human mAbs were derived; also called Elsilimomab

IC50 (recombinant human IL-6 [1]): 0.5 nM | IC50 (recombinant human IL-6 [2]): 0.01 nM | Kd (recombinant human IL-6 [3]): 0.02 nM | IC50 (read off the curve) (recombinant human IL-6 [5]): ~0.02 µg/mL | binding result (recombinant rat IL-6): no binding (tested: 100 ng/ml)
B4: mAb 88 (chimeric B-E8 control antibody) (antibody, V domains shown)
VH: B3 VH
VL: B3 VL
modifications: Biotinylated in FIG. 16.
notes: Chimeric form of murine B-E8; also called control mAb 88
binding result (recombinant murine IL-6): no binding (tested: 100 ng/ml (Ab: 0.1 µg/ml in the title))
